This assay has as its target recombinantly expressed RBD ([change] domain) of bat sarbecovirus WIV16 (bat SARS-like coronavirus WIV16).

“47D11 fully human IgG1 monoclonal antibody”: the concentration giving a half-maximal response (EC50 (read off the curve)) turned out to be 0.09 µg/mL.

Broadly, the EC50 (read off the curve) is the concentration at which the effect is half-maximal.

(Values after US20210340225A1.)
